Assay results published in the supplement of paper PMC10567573.

B1: TRIM15 (parent)
chain: LSQMGAQSSGKILLCPLCQEEEQA
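Note: lentivirally expressed fusions sorted by FACS into six bins by GFP to DsRed ratio, PSI derived from sequencing read proportions per bin multiplied by bin number.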

Variants of: B1
Assay: protein stability index of a GFP-peptide fusion (GPS, HEK-293T) (PSI 1-6); higher = more stable
Conditions: c terminus: a fixed tail appended
Work on LSQMGAQSSGKILLCPLCQEIEQA [E21I] yielded a protein stability index of 2.26. In the case of LSQMGAQSSGKILLCPLCQEDEQA [E21D], the protein stability index is reported as 3.36. LSQMGAQSSGKILLCPLCQEKEQA [E21K] gave a protein stability index of 2.85. LSQMGAQSSGKILLCPLCQEREQA [E21R] gave a protein stability index of 2.48. With LSQMGAQSSGKILLCPLCQECEQA [E21C] the protein stability index was 2.55. Work on LSQMGAQSSGKILLCPLCQEFEQA [E21F] yielded a protein stability index of 2.4. In the case of LSQMGAQSSGKILLCPLCQEAEQA [E21A], the protein stability index is reported as 3.22. Variant LSQMGAQSSGKILLCPLCQEPEQA [E21P] has a protein stability index of 3.36. LSQMGAQSSGKILLCPLCQEHEQA [E21H] showed a protein stability index of 3.31. In the case of LSQMGAQSSGKILLCPLCQEGEQA [E21G], the protein stability index is reported as 2.83. LSQMGAQSSGKILLCPLCQEVEQA [E21V] showed a protein stability index of 3.08. Variant LSQMGAQSSGKILLCPLCQETEQA [E21T] has a protein stability index of 3.36. LSQMGAQSSGKILLCPLCQEQEQA [E21Q] showed a protein stability index of 2.91. Work on LSQMGAQSSGKILLCPLCQEMEQA [E21M] yielded a protein stability index of 2.88. With LSQMGAQSSGKILLCPLCQEWEQA [E21W] the protein stability index was 2.89. With LSQMGAQSSGKILLCPLCQEYEQA [E21Y] the protein stability index was 2.82. Variant LSQMGAQSSGKILLCPLCQENEQA [E21N] has a protein stability index of 2.92. LSQMGAQSSGKILLCPLCQEEQQA [E22Q] showed a protein stability index of 3.2. Variant LSQMGAQSSGKILLCPLCQEEIQA [E22I] has a protein stability index of 2.63. Work on LSQMGAQSSGKILLCPLCQEEDQA [E22D] yielded a protein stability index of 3.41. For LSQMGAQSSGKILLCPLCQEEMQA [E22M], the protein stability index was 2.56. For LSQMGAQSSGKILLCPLCQEESQA [E22S], the protein stability index was 2.89. In the case of LSQMGAQSSGKILLCPLCQEETQA [E22T], the protein stability index is reported as 3.46. LSQMGAQSSGKILLCPLCQEEAQA [E22A] showed a protein stability index of 4.08. LSQMGAQSSGKILLCPLCQEEKQA [E22K] showed a protein stability index of 3.74. With LSQMGAQSSGKILLCPLCQEEGQA [E22G] the protein stability index was 3.12. In the case of LSQMGAQSSGKILLCPLCQEEPQA [E22P], the protein stability index is reported as 2.56. LSQMGAQSSGKILLCPLCQEELQA [E22L] gave a protein stability index of 3.38. In the case of LSQMGAQSSGKILLCPLCQEENQA [E22N], the protein stability index is reported as 4.15. With LSQMGAQSSGKILLCPLCQEEWQA [E22W] the protein stability index was 2. Variant LSQMGAQSSGKILLCPLCQEEYQA [E22Y] has a protein stability index of 2.02. Work on LSQMGAQSSGKILLCPLCQEEFQA [E22F] yielded a protein stability index of 2.6. With LSQMGAQSSGKILLCPLCQEEVQA [E22V] the protein stability index was 4.13. LSQMGAQSSGKILLCPLCQEECQA [E22C] showed a protein stability index of 2.82. Work on LSQMGAQSSGKILLCPLCQEEHQA [E22H] yielded a protein stability index of 3.67. LSQMGAQSSGKILLCPLCQEEEMA [Q23M] showed a protein stability index of 3.31. In the case of LSQMGAQSSGKILLCPLCQEEETA [Q23T], the protein stability index is reported as 3.33. Work on LSQMGAQSSGKILLCPLCQEEEWA [Q23W] yielded a protein stability index of 3.56. In the case of LSQMGAQSSGKILLCPLCQEEECA [Q23C], the protein stability index is reported as 3.58. Variant LSQMGAQSSGKILLCPLCQEEEAA [Q23A] has a protein stability index of 2.89. For LSQMGAQSSGKILLCPLCQEEEYA [Q23Y], the protein stability index was 3.09. Variant LSQMGAQSSGKILLCPLCQEEEFA [Q23F] has a protein stability index of 2.96. With LSQMGAQSSGKILLCPLCQEEEDA [Q23D] the protein stability index was 2.89. LSQMGAQSSGKILLCPLCQEEEVA [Q23V] gave a protein stability index of 3.11. LSQMGAQSSGKILLCPLCQEEEHA [Q23H] gave a protein stability index of 3.96. Variant LSQMGAQSSGKILLCPLCQEEEGA [Q23G] has a protein stability index of 3.47. Work on LSQMGAQSSGKILLCPLCQEEEEA [Q23E] yielded a protein stability index of 4.53. Work on LSQMGAQSSGKILLCPLCQEEENA [Q23N] yielded a protein stability index of 3.67. LSQMGAQSSGKILLCPLCQEEEIA [Q23I] gave a protein stability index of 3.2. Work on LSQMGAQSSGKILLCPLCQEEELA [Q23L] yielded a protein stability index of 3.12. LSQMGAQSSGKILLCPLQQEEEQA [C18Q] gave a protein stability index of 5.56. In the case of LSQMGAQSSGKILLCPLSQEEEQA [C18S], the protein stability index is reported as 4.92. In the case of LSQMGAQSSGKILLCPLVQEEEQA [C18V], the protein stability index is reported as 4.76. Variant LSQMGAQSSGKILLCPLYQEEEQA [C18Y] has a protein stability index of 4.27. Variant LSQMGAQSSGKILLCPLTQEEEQA [C18T] has a protein stability index of 4.86. LSQMGAQSSGKILLCPLWQEEEQA [C18W] showed a protein stability index of 4.59. In the case of LSQMGAQSSGKILLCPLRQEEEQA [C18R], the protein stability index is reported as 4.21. In the case of LSQMGAQSSGKILLCPLCCEEEQA [Q19C], the protein stability index is reported as 2.52. LSQMGAQSSGKILLCPLCVEEEQA [Q19V] gave a protein stability index of 4.04. Variant LSQMGAQSSGKILLCPLCIEEEQA [Q19I] has a protein stability index of 3.18. In the case of LSQMGAQSSGKILLCPLCLEEEQA [Q19L], the protein stability index is reported as 2.62. Variant LSQMGAQSSGKILLCPLCFEEEQA [Q19F] has a protein stability index of 3.62. Variant LSQMGAQSSGKILLCPLCDEEEQA [Q19D] has a protein stability index of 4.16. Work on LSQMGAQSSGKILLCPLCNEEEQA [Q19N] yielded a protein stability index of 3.57. Work on LSQMGAQSSGKILLCPLCEEEEQA [Q19E] yielded a protein stability index of 4.01. LSQMGAQSSGKILLCPLCREEEQA [Q19R] gave a protein stability index of 3.54. Variant LSQMGAQSSGKILLCPLCSEEEQA [Q19S] has a protein stability index of 3.23. Work on LSQMGAQSSGKILLCPLCHEEEQA [Q19H] yielded a protein stability index of 3.24. With LSQMGAQSSGKILLCPLCGEEEQA [Q19G] the protein stability index was 3.98. Work on LSQMGAQSSGKILLCPLCTEEEQA [Q19T] yielded a protein stability index of 3.83. With LSQMGAQSSGKILLCPLCWEEEQA [Q19W] the protein stability index was 2.78. LSQMGAQSSGKILLCPLCKEEEQA [Q19K] showed a protein stability index of 3.46. For LSQMGAQSSGKILLCPLCYEEEQA [Q19Y], the protein stability index was 3.73. For LSQMGAQSSGKILLCPLCAEEEQA [Q19A], the protein stability index was 4.35. LSQMGAQSSGKILLCPLCMEEEQA [Q19M] gave a protein stability index of 3.19. LSQMGAQSSGKILLCPLCPEEEQA [Q19P] showed a protein stability index of 4.42. LSQMGAQSSGKILLCPLCQEEEQW [A24W] showed a protein stability index of 2.44. Variant LSQMGAQSSGKILLCPLCQEEEQI [A24I] has a protein stability index of 3.87. In the case of LSQMGAQSSGKILLCPLCQEEEQY [A24Y], the protein stability index is reported as 3.55. In the case of LSQMGAQSSGKILLCPLCQEEEQE [A24E], the protein stability index is reported as 3.29. LSQMGAQSSGKILLCPLCQEEEQV [A24V] showed a protein stability index of 3.28. In the case of LSQMGAQSSGKILLCPLCQEEEQP [A24P], the protein stability index is reported as 3.45. LSQMGAQSSGKILLCPLCQEEEQN [A24N] showed a protein stability index of 3.88. Variant LSQMGAQSSGKILLCPLCQEEEQT [A24T] has a protein stability index of 3.72. LSQMGAQSSGKILLCPLCQEEEQL [A24L] showed a protein stability index of 2.63. In the case of LSQMGAQSSGKILLCPLCQEEEQG [A24G], the protein stability index is reported as 3.51. LSQMGAQSSGKILLCPLCQEEEQF [A24F] gave a protein stability index of 2.55. In the case of LSQMGAQSSGKILLCPLCQEEEQD [A24D], the protein stability index is reported as 4.56. Work on LSQMGAQSSGKILLCPLCQEEEQS [A24S] yielded a protein stability index of 3.94. For LSQMGAQSSGKILLCPLCQEEEQC [A24C], the protein stability index was 3.14. Work on LSQMGAQSSGKILLCPLCQEEEQK [A24K] yielded a protein stability index of 4.51. Work on LSQMGAQSSGKILLCPLCQEEEQQ [A24Q] yielded a protein stability index of 4.37. In the case of LSQMGAQSSGKILLCPLCQEEEQM [A24M], the protein stability index is reported as 2.84. In the case of LSQMGAQSSGKILLCPLCQEEEQR [A24R], the protein stability index is reported as 2.99.
